In PMC11180174 (Nature Communications, 2024):

Columns and labels:
Assay in all cases: BLI
Conditions in all cases: both partners purified
[1] = biological target: T1, SARS-CoV-2 Omicron BA.1 RBD, His-tagged (SARS-CoV-2 Omicron BA.1, strain)
T1 construct: not shown: 8xHis, C-terminal, kept

[2] = biological target: T2, SARS-CoV-2 Omicron BA.5 RBD, His-tagged (SARS-CoV-2 Omicron BA.5, strain)
T2 construct: not shown: 8xHis, C-terminal, kept

[3] = biological target: T3, SARS-CoV-2 Delta RBD, His-tagged (SARS-CoV-2 Delta (B.1.617.2), strain)
T3 construct: not shown: 8xHis, C-terminal, kept

[4] = biological target: T4, SARS-CoV-2 Omicron BF.7 RBD, His-tagged (SARS-CoV-2 Omicron BF.7, R346T)
T4 construct: not shown: 8xHis, C-terminal, kept

[5] = biological target: T5, SARS-CoV-2 Omicron BF.7 spike RBD-His (SARS-CoV-2 Omicron BF.7, strain)
T5 construct: not shown: His8, C-terminal, kept

[6] = biological target: T6, SARS-CoV-2 Omicron BA.1 spike RBD-His (SARS-CoV-2 Omicron BA.1, strain)
T6 construct: not shown: His8, C-terminal, kept

[7] = biological target: T7, SARS-CoV-2 Omicron BA.5 spike RBD-His (SARS-CoV-2 Omicron BA.5, strain)
T7 construct: not shown: His8, C-terminal, kept

[8] = biological target: T8, SARS-CoV-2 Delta spike RBD-His (SARS-CoV-2 Delta (B.1.617.2), strain)
T8 construct: not shown: His8, C-terminal, kept

[9] = biological target: T9, SARS-CoV-2 Omicron XBB RBD, His-tagged (SARS-CoV-2 Omicron XBB, R346T | L368I | V445P | F486S | F490S)
T9 construct: not shown: 8xHis, C-terminal, kept

[10] = biological target: T10, SARS-CoV-2 Omicron XBB.1.16 RBD, His-tagged (SARS-CoV-2 Omicron XBB.1.16, R346T | L368I | V445P | T478R | F486P | F490S)
T10 construct: not shown: 8xHis, C-terminal, kept

[11] = biological target: T11, SARS-CoV-2 Omicron XBB.1.16 spike RBD-His (SARS-CoV-2 Omicron XBB.1.16, R346T | L368I | V445P | F486P | F490S | T478R)
T11 construct: not shown: His8, C-terminal, kept

[12] = biological target: T12, SARS-CoV-2 Omicron XBB spike RBD-His (SARS-CoV-2 Omicron XBB, strain)
T12 construct: not shown: His8, C-terminal, kept

Binder | Kd [3] | koff [3] | kon [3] | Kd [4] | koff [4] | kon [4] | Kd [5] | koff [5] | kon [5] | Kd [8] | koff [8] | kon [8] | other results
LY-CoV1404 (also known as bebtelovimab) (antibody, V domains shown, control antibody) VH: QITLKESGPTLVKPTQTLTLTCTFSGFSLSISGVGVGWLRQPPGKALEWLALIYWDDDKRYSPSLKSRLTISKDTSKNQVVLKMTNIDPVDTATYYCAHHSISTIFDHWGQGTLVTVSS VL: QSALTQPASVSGSPGQSITISCTATSSDVGDYNYVSWYQQHPGKAPKLMIFEVSDRPSGISNRFSGSKSGNTASLTISGLQAEDEADYYCSSYTTSSAVFGGGTKLTVL | < 0.001 nM | < 1e-07 s⁻¹ | 244000 M⁻¹ s⁻¹ | < 0.001 nM | < 1e-07 s⁻¹ | 46800 M⁻¹ s⁻¹ |  |  |  |  |  |  | Kd [1]: < 0.001 nM; koff [1]: < 1e-07 s⁻¹; kon [1]: 32200 M⁻¹ s⁻¹; Kd [2]: < 0.001 nM; koff [2]: < 1e-07 s⁻¹; kon [2]: 40500 M⁻¹ s⁻¹
LY-CoV1404 (bebtelovimab) (antibody, V domains shown) VH: QITLKESGPTLVKPTQTLTLTCTFSGFSLSISGVGVGWLRQPPGKALEWLALIYWDDDKRYSPSLKSRLTISKDTSKNQVVLKMTNIDPVDTATYYCAHHSISTIFDHWGQGTLVTVSS VL: QSALTQPASVSGSPGQSITISCTATSSDVGDYNYVSWYQQHPGKAPKLMIFEVSDRPSGISNRFSGSKSGNTASLTISGLQAEDEADYYCSSYTTSSAVFGGGTKLTVL |  |  |  |  |  |  | < 0.001 nM | < 1e-07 s⁻¹ | 46800 M⁻¹ s⁻¹ | < 0.001 nM | < 1e-07 s⁻¹ | 244000 M⁻¹ s⁻¹ | Kd [6]: < 0.001 nM; koff [6]: < 1e-07 s⁻¹; kon [6]: 32200 M⁻¹ s⁻¹; Kd [7]: < 0.001 nM; koff [7]: < 1e-07 s⁻¹; kon [7]: 40400 M⁻¹ s⁻¹
neutralizing antibody 7F3 (antibody, V domains shown) VH: EVQLVESGGGLVKPGRSLRLSCTASGFTFGDYAMSWFRQAPGKGLEWVGFIRSKAYGGTTEYAASVKGRFTISRDDSKSIAYLQMNSLKTEDTAVYYCTRDRYARYDILTGLSPAGADYFYYAMDVWGQGTTVTVSS VL: EIVLTQSPATLSLSPGERATLSCRASQSVSSYLAWYQQKPGQAPRLLIYDASNRATGIPARFSGSGSGTDFTLTISSLEPEDFAVYYCQQRSNWPQYTFGQGTKLEIK | 20.8 nM | 0.000914 s⁻¹ | 44000 M⁻¹ s⁻¹ | 1280 nM | 0.0412 s⁻¹ | 32100 M⁻¹ s⁻¹ |  |  |  |  |  |  | Kd [9]: 19.9 nM; koff [9]: 0.00113 s⁻¹; kon [9]: 56600 M⁻¹ s⁻¹; Kd [10]: 28.6 nM; koff [10]: 0.0048 s⁻¹; kon [10]: 168000 M⁻¹ s⁻¹
7F3 neutralizing antibody (IgG) (antibody, V domains shown) VH: EVQLVESGGGLVKPGRSLRLSCTASGFTFGDYAMSWFRQAPGKGLEWVGFIRSKAYGGTTEYAASVKGRFTISRDDSKSIAYLQMNSLKTEDTAVYYCTRDRYARYDILTGLSPAGADYFYYAMDVWGQGTTVTVSS VL: EIVLTQSPATLSLSPGERATLSCRASQSVSSYLAWYQQKPGQAPRLLIYDASNRATGIPARFSGSGSGTDFTLTISSLEPEDFAVYYCQQRSNWPQYTFGQGTKLEIK |  |  |  |  |  |  | 1280 nM | 0.0412 s⁻¹ | 32100 M⁻¹ s⁻¹ | 20.8 nM | 0.000914 s⁻¹ | 44000 M⁻¹ s⁻¹ | Kd [11]: 28.6 nM; koff [11]: 0.0048 s⁻¹; kon [11]: 168000 M⁻¹ s⁻¹; Kd [12]: 19.9 nM; koff [12]: 0.00112 s⁻¹; kon [12]: 56600 M⁻¹ s⁻¹
